Results as given in paper PMC4081072, “Structure and semi-sequence-specific RNA binding of Nrd1”.

T1: Nrd1 307-491 WT (Saccharomyces cerevisiae, UniProt P53617 307-491)
T1 sequence: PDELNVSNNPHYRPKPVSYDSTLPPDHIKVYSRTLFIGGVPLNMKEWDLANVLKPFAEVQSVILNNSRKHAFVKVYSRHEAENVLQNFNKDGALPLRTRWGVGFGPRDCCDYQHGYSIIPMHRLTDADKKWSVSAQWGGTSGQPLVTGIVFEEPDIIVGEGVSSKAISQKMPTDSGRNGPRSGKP

T2: Nrd1 307-491 H376A (Saccharomyces cerevisiae, UniProt P53617 307-491, H376A)
T2 sequence: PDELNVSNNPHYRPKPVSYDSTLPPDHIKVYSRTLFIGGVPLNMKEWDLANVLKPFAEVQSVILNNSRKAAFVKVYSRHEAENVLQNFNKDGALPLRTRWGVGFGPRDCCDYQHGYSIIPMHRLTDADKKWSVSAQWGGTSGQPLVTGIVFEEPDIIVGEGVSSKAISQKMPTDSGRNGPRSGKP

T3: Nrd1 307-491 D417A (Saccharomyces cerevisiae, UniProt P53617 307-491, D417A)
T3 sequence: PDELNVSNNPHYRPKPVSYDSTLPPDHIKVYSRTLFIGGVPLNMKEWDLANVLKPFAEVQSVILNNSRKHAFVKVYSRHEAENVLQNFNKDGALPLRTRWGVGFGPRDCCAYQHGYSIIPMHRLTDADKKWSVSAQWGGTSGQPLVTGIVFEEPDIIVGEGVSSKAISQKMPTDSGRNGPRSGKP

T4: Nrd1 307-491 R429D (Saccharomyces cerevisiae, UniProt P53617 307-491, R429D)
T4 sequence: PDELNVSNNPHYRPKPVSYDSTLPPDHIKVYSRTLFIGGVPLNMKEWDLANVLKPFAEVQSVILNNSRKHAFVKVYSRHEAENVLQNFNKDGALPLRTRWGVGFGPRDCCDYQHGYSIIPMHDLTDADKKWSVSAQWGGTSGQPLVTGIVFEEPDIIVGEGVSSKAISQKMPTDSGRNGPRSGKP

T5: Nrd1 307-491 F342A (Saccharomyces cerevisiae, UniProt P53617 307-491, F342A)
T5 sequence: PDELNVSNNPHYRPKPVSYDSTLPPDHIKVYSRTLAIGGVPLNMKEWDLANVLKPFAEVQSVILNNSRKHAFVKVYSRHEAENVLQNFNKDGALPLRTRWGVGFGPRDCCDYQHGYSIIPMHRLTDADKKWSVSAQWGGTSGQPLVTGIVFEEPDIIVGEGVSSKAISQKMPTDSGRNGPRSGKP

T6: Nrd1 307-491 T431R (Saccharomyces cerevisiae, UniProt P53617 307-491, T431R)
T6 sequence: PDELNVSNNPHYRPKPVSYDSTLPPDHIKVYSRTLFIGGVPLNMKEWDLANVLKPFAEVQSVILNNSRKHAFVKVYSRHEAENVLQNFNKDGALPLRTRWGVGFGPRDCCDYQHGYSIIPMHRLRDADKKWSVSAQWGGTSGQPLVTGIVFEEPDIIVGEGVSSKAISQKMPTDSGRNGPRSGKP

T7: Nrd1 307-491 F378A (Saccharomyces cerevisiae, UniProt P53617 307-491, F378A)
T7 sequence: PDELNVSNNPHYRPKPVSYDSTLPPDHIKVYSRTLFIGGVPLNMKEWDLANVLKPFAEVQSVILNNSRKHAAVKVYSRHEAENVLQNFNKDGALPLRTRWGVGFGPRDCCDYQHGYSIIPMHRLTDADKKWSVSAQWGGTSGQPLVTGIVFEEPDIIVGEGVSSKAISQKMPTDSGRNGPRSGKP

T8: Nrd1 307-491 G409A (Saccharomyces cerevisiae, UniProt P53617 307-491, G409A)
T8 sequence: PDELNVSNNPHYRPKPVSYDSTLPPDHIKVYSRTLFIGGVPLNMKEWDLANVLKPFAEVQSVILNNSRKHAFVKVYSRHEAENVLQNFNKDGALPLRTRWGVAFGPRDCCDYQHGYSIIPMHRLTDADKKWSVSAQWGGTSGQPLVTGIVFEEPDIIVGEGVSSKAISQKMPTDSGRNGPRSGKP

T9: Nrd1 307-491 K435D (Saccharomyces cerevisiae, UniProt P53617 307-491, K435D)
T9 sequence: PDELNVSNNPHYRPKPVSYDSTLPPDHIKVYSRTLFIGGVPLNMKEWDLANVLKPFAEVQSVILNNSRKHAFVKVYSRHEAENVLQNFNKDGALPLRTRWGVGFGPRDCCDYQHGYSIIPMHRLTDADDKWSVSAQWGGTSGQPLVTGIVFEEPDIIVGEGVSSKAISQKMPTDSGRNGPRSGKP


What was measured:
[1] = target: T1, Nrd1 307-491 WT; test: fluorescence anisotropy; FA: 10 nM RNA, 50 mM sodium phosphate pH 8, 150 mM NaCl, 10 mM beta-mercaptoethanol, 20 C (protein stock in 300 mM NaCl); NMR: same buffer with 300 mM NaCl, 20; conditions: protein: recombinant, tags: C-terminal His6
[2] = target: T1, Nrd1 307-491 WT; test: fluorescence anisotropy; prolonged incubation between aliquots; FA: 10 nM RNA, 50 mM sodium phosphate pH 8, 150 mM NaCl, 10 mM beta-mercaptoethanol, 20 C (protein stock in 300 mM NaCl); NMR: same buffer with 300 mM NaCl, 20; conditions: protein: recombinant; tags: C-terminal His6; label: 5' fluorescein or TAMRA (FA); unlabeled (NMR); may form quadruplex when free
[3] = target: T2, Nrd1 307-491 H376A; test: fluorescence anisotropy; FA: 10 nM RNA, 50 mM sodium phosphate pH 8, 150 mM NaCl, 10 mM beta-mercaptoethanol, 20 C (protein stock in 300 mM NaCl); NMR: same buffer with 300 mM NaCl, 20; conditions: protein: recombinant; tags: C-terminal His6; label: 5' fluorescein or TAMRA (FA); unlabeled (NMR)
[4] = target: T3, Nrd1 307-491 D417A; test: as above; conditions: protein: recombinant; tags: C-terminal His6; label: 5' fluorescein or TAMRA (FA); unlabeled (NMR)
[5] = target: T4, Nrd1 307-491 R429D; test: as above; conditions: protein: recombinant; tags: C-terminal His6; label: 5' fluorescein or TAMRA (FA); unlabeled (NMR)
[6] = target: T5, Nrd1 307-491 F342A; test: as above; conditions: protein: recombinant; tags: C-terminal His6; label: 5' fluorescein or TAMRA (FA); unlabeled (NMR)
[7] = target: T6, Nrd1 307-491 T431R; test: as above; conditions: protein: recombinant; tags: C-terminal His6; label: 5' fluorescein or TAMRA (FA); unlabeled (NMR)
[8] = target: T7, Nrd1 307-491 F378A; test: as above; conditions: protein: recombinant; tags: C-terminal His6; label: 5' fluorescein or TAMRA (FA); unlabeled (NMR)
[9] = target: T8, Nrd1 307-491 G409A; test: as above; conditions: protein: recombinant; tags: C-terminal His6; label: 5' fluorescein or TAMRA (FA); unlabeled (NMR)
[10] = target: T9, Nrd1 307-491 K435D; test: as above; conditions: protein: recombinant; tags: C-terminal His6; label: 5' fluorescein or TAMRA (FA); unlabeled (NMR)

| Binder | Kd ([1]; label: 5' fluorescein or TAMRA) [µM] | also measured |
| --- | --- | --- |
| UUUUUUU (ssRNA) [U7] | 69.8 ± 3.2 |  |
| CCCCUGAAUUAAGCCCCCCCCCCCCC (ssRNA) [win78polyC] | 7.2 ± 0.5 |  |
| AUAUAUA (ssRNA) | 11.3 ± 0.5 |  |
| AUUAUUA (ssRNA) | 14.8 ± 0.4 |  |
| AGCGUGAAUUAAGUCUUGCACACACA (ssRNA) [win78dNrd1dAUrichCA] | 5.4 ± 0.2 |  |
| GGGGGGG (ssRNA) [G7] |  | Kd [2]: 5.7 ± 1.2 µM |
| AGCGUGAAUUAAGUCUUGAUAUAUAA (ssRNA) [win78dNrd1] | 2.5 ± 0.2 |  |
| GCGGGGC (ssRNA) |  | Kd [3]: 37.5 ± 3.7 µM; Kd [4]: 31.7 ± 6 µM; Kd ([1]; label: 5' fluorescein or TAMRA (FA), unlabeled (NMR)): 9.8 ± 0.3 µM; Kd [5]: 60.1 ± 3.5 µM; Kd [6]: 29.5 ± 4 µM; Kd [7]: 48 ± 2.9 µM; Kd [8]: 73.4 ± 10.7 µM; Kd [9]: 30.3 ± 3.9 µM; Kd [10]: 50.5 ± 10.8 µM |
| CACACAC (ssRNA) | 108 ± 4 |  |
| GUAAUGAAUUAAGUCUUGAUAUAUAA (ssRNA) [win78wt] | 1.5 ± 0.1 |  |
| AGCGUGAAUUAAGAGCGUAUAUAUAA (ssRNA) [win78dNrd1dNab3] | 7.9 ± 0.3 |  |
| GUUGUUG (ssRNA) | 13 ± 0.7 |  |
| GCGGGCG (ssRNA) | 13.2 ± 0.5 |  |
| AAAAAAA (ssRNA) [A7] | 32.1 ± 0.9 |  |
| UCUUG (ssRNA) | 41.1 ± 2.7 |  |
| UGGUGGU (ssRNA) | 6.8 ± 0.6 |  |
| CAGCGUC (ssRNA) | 37.7 ± 1.1 |  |
| UGGA (ssRNA) | 94.1 ± 3.9 |  |
